We go through 15 molecules from patent US20250333467A1 (TECTONIC OPERATING, published 2025).

The assay has as its target T1, human RXFP1 (human, UniProt Q9HBX9 1-757).
T1 sequence (looked up): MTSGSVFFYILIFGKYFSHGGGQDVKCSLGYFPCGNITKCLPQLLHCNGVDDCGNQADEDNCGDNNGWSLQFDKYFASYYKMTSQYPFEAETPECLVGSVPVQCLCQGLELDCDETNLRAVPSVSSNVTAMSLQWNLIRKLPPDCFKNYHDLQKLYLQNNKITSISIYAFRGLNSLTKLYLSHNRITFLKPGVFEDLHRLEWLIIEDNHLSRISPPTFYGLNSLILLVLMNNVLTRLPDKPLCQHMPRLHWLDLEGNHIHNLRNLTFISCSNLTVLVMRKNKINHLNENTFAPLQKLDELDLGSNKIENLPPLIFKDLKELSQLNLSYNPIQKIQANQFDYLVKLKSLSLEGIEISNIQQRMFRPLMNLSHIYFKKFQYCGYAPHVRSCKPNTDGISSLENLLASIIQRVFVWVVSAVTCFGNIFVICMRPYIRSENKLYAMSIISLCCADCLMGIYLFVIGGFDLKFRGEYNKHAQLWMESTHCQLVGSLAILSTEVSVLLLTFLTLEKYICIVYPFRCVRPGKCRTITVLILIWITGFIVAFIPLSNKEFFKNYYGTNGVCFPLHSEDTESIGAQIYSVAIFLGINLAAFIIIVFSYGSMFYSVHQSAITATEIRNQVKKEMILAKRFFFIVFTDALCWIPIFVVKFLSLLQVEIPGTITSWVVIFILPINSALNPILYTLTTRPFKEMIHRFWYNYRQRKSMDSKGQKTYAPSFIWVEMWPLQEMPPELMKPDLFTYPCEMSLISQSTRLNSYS
As to the kind of experiment: cell-based or functional assay.

B1: SEQ ID NO: 94 (Fc fusion)
chain: DKTHTCPPCPAPEAAGGPSVFLFPPKPKDTLMISRTPEVTCVVVDVSHEDPEVKFNWYVDGVEVHNAKTKPREEQYNSTYRVVSVLTVLHQDWLNGKEYKCKVSNKALAAPIEKTISKAKGQPREPQVYTLPPSRDELTKNQVSLTCLVKGFYPSDIAVEWESNGQPENNYKTTPPVLDSDGSFFLYSKLTVDKSRWQQGNVFSCSVLHEALHSHYTQKSLSLSPGEGGSDSWQEEVIKLCGRELVRAQIAICGKSTASDAAGAEAEAGARQLYSALANKCCHVGCTKRSLAQFC
As for B1, the “Potency (cAMP, transient hRXFP1 in HEK293)” value (“Potency” below) was determined as 12.2 nM.

B2: SEQ ID NO: 103 (Fc fusion)
chain: DKTHTCPPCPAPEAAGGPSVFLFPPKPKDTLMISRTPEVTCVVVDVSHEDPEVKFNWYVDGVEVHNAKTKPREEQYNSTYRVVSVLTVLHQDWLNGKEYKCKVSNKALAAPIEKTISKAKGQPREPQVYTLPPSRDELTKNQVSLTCLVKGFYPSDIAVEWESNGQPENNYKTTPPVLDSDGSFFLYSKLTVDKSRWQQGNVFSCSVLHEALHSHYTQKSLSLSPGEGGSDSWQEEVIKLCGRELVRAQIAICGQSTASDAAGADAQAGARQLYSALANKCCHVGCTKRSLAQFC
B2: the “Potency” value was found to be 12.2 nM.

B3: SEQ ID NO: 113 (Fc fusion)
chain: DKTHTCPPCPAPEAAGGPSVFLFPPKPKDTLMISRTPEVTCVVVDVSHEDPEVKFNWYVDGVEVHNAKTKPREEQYNSTYRVVSVLTVLHQDWLNGKEYKCKVSNKALAAPIEKTISKAKGQPREPQVYTLPPSRDELTKNQVSLTCLVKGFYPSDIAVEWESNGQPENNYKTTPPVLDSDGSFFLYSKLTVDKSRWQQGNVFSCSVLHEALHSHYTQKSLSLSPGEGGSDSWQEEVIKLCGRELVRAQIAICGQSTASDAAGANADAGARQLYSALANKCCHVGCTKQSLAQFC
Turning to B3, the “Potency” value worked out at 26 nM.

B4: SEQ ID NO: 96 (Fc fusion)
chain: DKTHTCPPCPAPEAAGGPSVFLFPPKPKDTLMISRTPEVTCVVVDVSHEDPEVKFNWYVDGVEVHNAKTKPREEQYNSTYRVVSVLTVLHQDWLNGKEYKCKVSNKALAAPIEKTISKAKGQPREPQVYTLPPSRDELTKNQVSLTCLVKGFYPSDIAVEWESNGQPENNYKTTPPVLDSDGSFFLYSKLTVDKSRWQQGNVFSCSVLHEALHSHYTQKSLSLSPGEGGSDSWQEEVIKLCGRELVRAQIAICGKSTASDAAGADAQAGARQLYSALANKCCHVGCTKRSLAQFC
In the case of B4, the “Potency” value amounted to 9.9 nM.

B5: SEQ ID NO: 100 (Fc fusion)
chain: DKTHTCPPCPAPEAAGGPSVFLFPPKPKDTLMISRTPEVTCVVVDVSHEDPEVKFNWYVDGVEVHNAKTKPREEQYNSTYRVVSVLTVLHQDWLNGKEYKCKVSNKALAAPIEKTISKAKGQPREPQVYTLPPSRDELTKNQVSLTCLVKGFYPSDIAVEWESNGQPENNYKTTPPVLDSDGSFFLYSKLTVDKSRWQQGNVFSCSVLHEALHSHYTQKSLSLSPGEGGSDSWQEEVIKLCGRELVRAQIAICGQSTASDAAGADADAGARQLYSALANKCCHVGCTKRSLAQFC
Consider B5, for which the “Potency” value amounted to 28.7 nM.

B6: SEQ ID NO: 106 (Fc fusion)
chain: DKTHTCPPCPAPEAAGGPSVFLFPPKPKDTLMISRTPEVTCVVVDVSHEDPEVKFNWYVDGVEVHNAKTKPREEQYNSTYRVVSVLTVLHQDWLNGKEYKCKVSNKALAAPIEKTISKAKGQPREPQVYTLPPSRDELTKNQVSLTCLVKGFYPSDIAVEWESNGQPENNYKTTPPVLDSDGSFFLYSKLTVDKSRWQQGNVFSCSVLHEALHSHYTQKSLSLSPGEGGSDSWQEEVIKLCGRELVRAQIAICGKSTASDAAGANADAGARQLYSALANKCCHVGCTKQSLAQFC
Take B6: the “Potency” value stood at 14 nM.

B7: SEQ ID NO: 99 (Fc fusion)
chain: DKTHTCPPCPAPEAAGGPSVFLFPPKPKDTLMISRTPEVTCVVVDVSHEDPEVKFNWYVDGVEVHNAKTKPREEQYNSTYRVVSVLTVLHQDWLNGKEYKCKVSNKALAAPIEKTISKAKGQPREPQVYTLPPSRDELTKNQVSLTCLVKGFYPSDIAVEWESNGQPENNYKTTPPVLDSDGSFFLYSKLTVDKSRWQQGNVFSCSVLHEALHSHYTQKSLSLSPGEGGSDSWQEEVIKLCGRELVRAQIAICGQSTASDAAGANADAGARQLYSALANKCCHVGCTKRSLAQFC
Turning to B7, the “Potency” value was 9.4 nM.

B8: SEQ ID NO: 117 (Fc fusion)
chain: DKTHTCPPCPAPEAAGGPSVFLFPPKPKDTLMISRTPEVTCVVVDVSHEDPEVKFNWYVDGVEVHNAKTKPREEQYNSTYRVVSVLTVLHQDWLNGKEYKCKVSNKALAAPIEKTISKAKGQPREPQVYTLPPSRDELTKNQVSLTCLVKGFYPSDIAVEWESNGQPENNYKTTPPVLDSDGSFFLYSKLTVDKSRWQQGNVFSCSVLHEALHSHYTQKSLSLSPGEGGSDSWQEEVIKLCGRELVRAQIAICGQSTASDAAGADAQAGARQLYSALANKCCHVGCTKQSLAQFC
Turning to B8, the “Potency” value came to 31.2 nM.

B9: SEQ ID NO: 97 (Fc fusion)
chain: DKTHTCPPCPAPEAAGGPSVFLFPPKPKDTLMISRTPEVTCVVVDVSHEDPEVKFNWYVDGVEVHNAKTKPREEQYNSTYRVVSVLTVLHQDWLNGKEYKCKVSNKALAAPIEKTISKAKGQPREPQVYTLPPSRDELTKNQVSLTCLVKGFYPSDIAVEWESNGQPENNYKTTPPVLDSDGSFFLYSKLTVDKSRWQQGNVFSCSVLHEALHSHYTQKSLSLSPGEGGSDSWQEEVIKLCGRELVRAQIAICGKSTASDAAGAQAQAGARQLYSALANKCCHVGCTKRSLAQFC
Regarding B9, the “Potency” value came to 1.3 nM.

B10: SEQ ID NO: 110 (Fc fusion)
chain: DKTHTCPPCPAPEAAGGPSVFLFPPKPKDTLMISRTPEVTCVVVDVSHEDPEVKFNWYVDGVEVHNAKTKPREEQYNSTYRVVSVLTVLHQDWLNGKEYKCKVSNKALAAPIEKTISKAKGQPREPQVYTLPPSRDELTKNQVSLTCLVKGFYPSDIAVEWESNGQPENNYKTTPPVLDSDGSFFLYSKLTVDKSRWQQGNVFSCSVLHEALHSHYTQKSLSLSPGEGGSDSWQEEVIKLCGRELVRAQIAICGKSTASDAAGADAQAGARQLYSALANKCCHVGCTKQSLAQFC
B10: the “Potency” value came to 17.2 nM.

B11: SEQ ID NO: 101 (Fc fusion)
chain: DKTHTCPPCPAPEAAGGPSVFLFPPKPKDTLMISRTPEVTCVVVDVSHEDPEVKFNWYVDGVEVHNAKTKPREEQYNSTYRVVSVLTVLHQDWLNGKEYKCKVSNKALAAPIEKTISKAKGQPREPQVYTLPPSRDELTKNQVSLTCLVKGFYPSDIAVEWESNGQPENNYKTTPPVLDSDGSFFLYSKLTVDKSRWQQGNVFSCSVLHEALHSHYTQKSLSLSPGEGGSDSWQEEVIKLCGRELVRAQIAICGQSTASDAAGAEAEAGARQLYSALANKCCHVGCTKRSLAQFC
Turning to B11, the “Potency” value is 29.4 nM.

B12: SEQ ID NO: 108 (Fc fusion)
chain: DKTHTCPPCPAPEAAGGPSVFLFPPKPKDTLMISRTPEVTCVVVDVSHEDPEVKFNWYVDGVEVHNAKTKPREEQYNSTYRVVSVLTVLHQDWLNGKEYKCKVSNKALAAPIEKTISKAKGQPREPQVYTLPPSRDELTKNQVSLTCLVKGFYPSDIAVEWESNGQPENNYKTTPPVLDSDGSFFLYSKLTVDKSRWQQGNVFSCSVLHEALHSHYTQKSLSLSPGEGGSDSWQEEVIKLCGRELVRAQIAICGKSTASDAAGAEAEAGARQLYSALANKCCHVGCTKQSLAQFC
In the case of B12, the “Potency” value was determined as 35.2 nM.

B13: SEQ ID NO: 116 (Fc fusion)
chain: DKTHTCPPCPAPEAAGGPSVFLFPPKPKDTLMISRTPEVTCVVVDVSHEDPEVKFNWYVDGVEVHNAKTKPREEQYNSTYRVVSVLTVLHQDWLNGKEYKCKVSNKALAAPIEKTISKAKGQPREPQVYTLPPSRDELTKNQVSLTCLVKGFYPSDIAVEWESNGQPENNYKTTPPVLDSDGSFFLYSKLTVDKSRWQQGNVFSCSVLHEALHSHYTQKSLSLSPGEGGSDSWQEEVIKLCGRELVRAQIAICGQSTASDAAGAQADAGARQLYSALANKCCHVGCTKQSLAQFC
With B13, the “Potency” value came out at 25.9 nM.

B14: SEQ ID NO: 102 (Fc fusion)
chain: DKTHTCPPCPAPEAAGGPSVFLFPPKPKDTLMISRTPEVTCVVVDVSHEDPEVKFNWYVDGVEVHNAKTKPREEQYNSTYRVVSVLTVLHQDWLNGKEYKCKVSNKALAAPIEKTISKAKGQPREPQVYTLPPSRDELTKNQVSLTCLVKGFYPSDIAVEWESNGQPENNYKTTPPVLDSDGSFFLYSKLTVDKSRWQQGNVFSCSVLHEALHSHYTQKSLSLSPGEGGSDSWQEEVIKLCGRELVRAQIAICGQSTASDAAGAQADAGARQLYSALANKCCHVGCTKRSLAQFC
Take B14: the “Potency” value stood at 7.5 nM.

B15: SEQ ID NO: 112 (Fc fusion)
chain: DKTHTCPPCPAPEAAGGPSVFLFPPKPKDTLMISRTPEVTCVVVDVSHEDPEVKFNWYVDGVEVHNAKTKPREEQYNSTYRVVSVLTVLHQDWLNGKEYKCKVSNKALAAPIEKTISKAKGQPREPQVYTLPPSRDELTKNQVSLTCLVKGFYPSDIAVEWESNGQPENNYKTTPPVLDSDGSFFLYSKLTVDKSRWQQGNVFSCSVLHEALHSHYTQKSLSLSPGEGGSDSWQEEVIKLCGRELVRAQIAICGQSTASDAAGADANAGARQLYSALANKCCHVGCTKQSLAQFC
Turning to B15, the “Potency” value is 24.8 nM.
